B1: TTC23: human host interactor protein, Gene ID 64927, expressed from transfected ORF vector (protein)
chain: MQESQETHISNHLDEVVAAVSITHRKKFQNKLLQTALFQPPREKLHLCEEKAKSYSNSHEYKQAVHELVRCVALTRICYGDSHWKLAEAHVNLAQGYLQLKGLSLQAKQHAEKARQILANSIVPPYSENTDVFKFSIELFHTMGRALLSLQKFKEAAENLTKAERLSKELLQCGRIIKEEWIEIEARIRLSFAQVYQGQKKSKEALSHYQAALEYVEISKGETSRECVPILRELAGVEQALGLHDVSINHFLQAHLIILSRSPSQVEAADSAHIVAHAAVASGRHEHHDVAEQYFQESMAHLKDSEGMGRTKFLSIQDEFCHFLQMTGQKERATSILRESLEAKVEAFGDFSPEVAETYRLLGGADLAQGNHSGARKKLKKCLQIQTLLYGPQDKRTLATQQAMGMLSTAPKVASKPRQASKAKVAFCTSIPQDTLLGKARPGTTAD
B2: KRT15: human host interactor protein, Gene ID 3866, expressed from transfected ORF vector (protein)
chain: MTTTFLQTSSSTFGGGSTRGGSLLAGGGGFGGGSLSGGGGSRSISASSARFVSSGSGGGYGGGMRVCGFGGGAGSVFGGGFGGGVGGGFGGGFGGGDGGLLSGNEKITMQNLNDRLASYLDKVRALEEANADLEVKIHDWYQKQTPTSPECDYSQYFKTIEELRDKIMATTIDNSRVILEIDNARLAADDFRLKYENELALRQGVEADINGLRRVLDELTLARTDLEMQIEGLNEELAYLKKNHEEEMKEFSSQLAGQVNVEMDAAPGVDLTRVLAEMREQYEAMAEKNRRDVEAWFFSKTEELNKEVASNTEMIQTSKTEITDLRRTMQELEIELQSQLSMKAGLENSLAETECRYATQLQQIQGLIGGLEAQLSELRCEMEAQNQEYKMLLDIKTRLEQEIATYRSLLEGQDAKMAGIAIREASSGGGGSSSNFHINVEESVDGQVVSSHKREI
B3: MIZF: human host interactor protein, Gene ID 25988, expressed from transfected ORF vector (protein)
chain: MPPPGKVPRKENLWLQCEWGSCSFVCSTMEKFFEHVTQHLQQHLHGSGEEEEEEEEDDPLEEEFSCLWQECGFCSLDSSADLIRHVYFHCYHTKLKQWGLQALQSQADLGPCILDFQSRNVIPDIPDHFLCLWEHCENSFDNPEWFYRHVEAHSLCCEYEAVGKDNPVVLCGWKGCTCTFKDRSKLREHLRSHTQEKVVACPTCGGMFANNTKFLDHIRRQTSLDQQHFQCSHCSKRFATERLLRDHMRNHVNHYKCPLCDMTCPLPSSLRNHMRFRHSEDRPFKCDCCDYSCKNLIDLQKHLDTHSEEPAYRCDFENCTFSARSLCSIKSHYRKVHEGDSEPRYKCHVCDKCFTRGNNLTVHLRKKHQFKWPSGHPRFRYKEHEDGYMRLQLVRYESVELTQQLLRQPQEGSGLGTSLNESSLQGIILETVPGEPGRKEEEEEGKGSEGTALSASQDNPSSVIHVVNQTNAQGQQEIVYYVLSEAPGEPPPAPEPPSGGIMEKLQGIAEEPEIQMV
B4: MLLT11: human host interactor protein, Gene ID 10962, expressed from transfected ORF vector (protein)
chain: MRDPVSSQYSSFLFWRMPIPELDLSELEGLGLSDTATYKVKDSSVGKMIGQATAADQEKNPEGDGLLEYSTFNFWRAPIASIHSFELDLL
B5: HOXD3: human host interactor protein, Gene ID 3232, expressed from transfected ORF vector (protein)
chain: MLFEQGQQALELPECTMQKAAYYENPGLFGGYGYSKTTDTYGYSTPHQPYPPPAAASSLDTDYPGSACSIQSSAPLRAPAHKGAELNGSCMRPGTGNSQGGGGGSQPPGLNSEQQPPQPPPPPPTLPPSSPTNPGGGVPAKKPKGGPNASSSSATISKQIFPWMKESRQNSKQKNSCATAGESCEDKSPPGPASKRVRTAYTSAQLVELEKEFHFNRYLCRPRRVEMANLLNLTERQIKIWFQNRRMKYKKDQKAKGILHSPASQSPERSPPLGGAAGHVAYSGQLPPVPGLAYDAPSPPAFAKSQPNMYGLAAYTAPLSSCLPQQKRYAAPEFEPHPMASNGGGFASANLQGSPVYVGGNFVESMAPASGPVFNLGHLSHPSSASVDYSCAAQIPGNHHHGPCDPHPTYTDLSAHHSSQGRLPEAPKLTHL
B6: NKAP: human host interactor protein, Gene ID 79576, expressed from transfected ORF vector (protein)
chain: MAPVSGSRSPDREASGSGGRRRSSSKSPKPSKSARSPRGRRSRSHSCSRSGDRNGLTHQLGGLSQGSRNQSYRSRSRSRSRERPSAPRGIPFASASSSVYYGSYSRPYGSDKPWPSLLDKEREESLRQKRLSERERIGELGAPEVWGLSPKNPEPDSDEHTPVEDEEPKKSTTSASTSEEEKKKKSSRSKERSKKRRKKKSSKRKHKKYSEDSDSDSDSETDSSDEDNKRRAKKAKKKEKKKKHRSKKYKKKRSKKSRKESSDSSSKESQEEFLENPWKDRTKAEEPSDLIGPEAPKTLTSQDDKPLNYGHALLPGEGAAMAEYVKAGKRIPRRGEIGLTSEEIASFECSGYVMSGSRHRRMEAVRLRKENQIYSADEKRALASFNQEERRKRENKILASFREMVYRKTKGKDDK
B7: MINA: human host interactor protein, Gene ID 84864, expressed from transfected ORF vector (protein)
chain: MPKKAKPTGSGKEEGPAPCKQMKLEAAGGPSALNFDSPSSLFESLISPIKTETFFKEFWEQKPLLIQRDDPALATYYGSLFKLTDLKSLCSRGMYYGRDVNVCRCVNGKKKVLNKDGKAHFLQLRKDFDQKRATIQFHQPQRFKDELWRIQEKLECYFGSLVGSNVYITPAGSQGLPPHYDDVEVFILQLEGEKHWRLYHPTVPLAREYSVEAEERIGRPVHEFMLKPGDLLYFPRGTIHQADTPAGLAHSTHVTISTYQNNSWGDFLLDTISGLVFDTAKEDVELRTGIPRQLLLQVESTTVATRRLSGFLRTLADRLEGTKELLSSDMKKDFIMHRLPPYSAGDGAELSTPGGKLPRLDSVVRLQFKDHIVLTVLPDQDQSDEAQEKMVYIYHSLKNSRETHMMGNEEETEFHGLRFPLSHLDALKQIWNSPAISVKDLKLTTDEEKESLVLSLWTECLIQVV
B8: LOC541468: human host interactor protein, Gene ID 541468, expressed from transfected ORF vector (protein)
chain: MEGTVESQTPDLRDVEGKVGRKTPEGLLRGLRGECELGTSGALLLPGASSTGHDLGDKIMALKMELAYLRAIDVKILQQLVTLNEGIEAVRWLLEERGTLTSHCSSLTSSQYSLTGGSPGRSRRGSWDSLPDTSTTDRLDSVSIGSFLDTVAPSELDEQGPPGAPRSEMDWAKVIAGGERARTEVDVAATRLGSLRAVWKPPGERLQGGPPESPEDESAKLGFEAHWFWEQCQDDVTFL
B9: DLAT: human host interactor protein, Gene ID 1737, expressed from transfected ORF vector (protein)
chain: MWRVCARRAQNVAPWAGLEARWTALQEVPGTPRVTSRSGPAPARRNSVTTGYGGVRALCGWTPSSGATPRNRLLLQLLGSPGRRYYSLPPHQKVPLPSLSPTMQAGTIARWEKKEGDKINEGDLIAEVETDKATVGFESLEECYMAKILVAEGTRDVPIGAIICITVGKPEDIEAFKNYTLDSSAAPTPQAAPAPTPAATASPPTPSAQAPGSSYPPHMQVLLPALSPTMTMGTVQRWEKKVGEKLSEGDLLAEIETDKATIGFEVQEEGYLAKILVPEGTRDVPLGTPLCIIVEKEADISAFADYRPTEVTDLKPQVPPPTPPPVAAVPPTPQPLAPTPSAPCPATPAGPKGRVFVSPLAKKLAVEKGIDLTQVKGTGPDGRITKKDIDSFVPSKVAPAPAAVVPPTGPGMAPVPTGVFTDIPISNIRRVIAQRLMQSKQTIPHYYLSIDVNMGEVLLVRKELNKILEGRSKISVNDFIIKASALACLKVPEANSSWMDTVIRQNHVVDVSVAVSTPAGLITPIVFNAHIKGVETIANDVVSLATKAREGKLQPHEFQGGTFTISNLGMFGIKNFSAIINPPQACILAIGASEDKLVPADNEKGFDVASMMSVTLSCDHRVVDGAVGAQWLAEFRKYLEKPITMLL

The first experiment has as its system HTLV-1 LTR promoter transactivation by HTLV-1 Tax. As to the kind of experiment: Transactivation assay, HTLV-1 LTR luciferase reporter with HTLV-1 Tax. It is filed as cell-based. Particulars: HEK293 cells co-transfected with pHTLV1LTR-Luc, HTLV-1 Tax and the human ORF; relative luciferase activity 24 h post-transfection; positive if >=2 or <=0.5 and p<0.05. From the text:
(§1) Twenty-four hours post-transfection, cells were washed three times with PBS, lysed and luciferase activities determined from two independent transfection experiments in triplicate. We computed a paired t-test to assess the difference of the means between samples with and without the human interactor. For a trial to be considered positive, the relative luciferase activities has to be >=2 or <=0.5, and the p-value of the t-test<0.05.
Expression vectors encoding human ORFs and HIV-1 Tat or HTLV-1 Tax proteins were tested in a transactivation reporter assay against reporter plasmids harboring HIV-1 or HTLV-1 viral promoter sequences cloned upstream of the luciferase reporter gene. […] Wherever not expressly specified, constructs used herein were generally made by sub-cloning entry clones from the ORFeome V3.1 into suitable destination vectors.
The molecule B1 came in with an HTLV_LTR transactiv. of 0.21 fold change.

The subject of a further experiment is HIV-1 LTR promoter transactivation by HIV-1 Tat. Kind of experiment: Transactivation assay, HIV-1 LTR luciferase reporter with HIV-1 Tat. Conditions: HEK293 cells co-transfected with pHIV1LTR-Luc, HIV-1 Tat and the human ORF; relative luciferase activity 24 h post-transfection; positive if >=2 or <=0.5 and p<0.05. It is filed as cell-based.
Description: as §1, with “The plasmids pHIV1LTR-Luc or pHTLV1LTR-Luc containing a luciferase reporter gene under the control of the HIV-1 or HTLV-1 LTR promoters and plasmids expressing either HIV-1 Tat or HTLV-1 Tax and each human ORF found to interact with viral proteins were transfected into 10^4 HEK293 cells using the calcium phosphate method. Twenty-four” for “Twenty-four”
Many HIV/HTLV-human interactions in our data set (130/212) involved the retroviral transactivator proteins HTLV-1 Tax (57/212), HTLV-2 Tax2 (49/212), HIV-1 Tat (10/212) and HIV-2 Tat (14/212). Human proteins interacting with viral transactivators likely influence Tat or Tax transactivation. Expression vectors encoding human ORFs and HIV-1 Tat or HTLV-1 Tax proteins were tested in a transactivation reporter assay against reporter plasmids harboring HIV-1 or HTLV-1 viral promoter sequences cloned upstream of the luciferase reporter gene. In the controls Tat or Tax respectively activated HIV or HTLV LTR-directed gene expression. Co-transfection of interacting human ORFs identified 71 proteins (54% of the 131 human targets in our data set) that regulated HIV (26.7% of targets), HTLV (37.4% of targets) or both (9.9% of targets) LTR promoter activation by Tat or Tax (see Tables 7 and 8; Table 13 below containing quantitative data on the regulation of transactivation). Wherever not expressly specified, constructs used herein were generally made by sub-cloning entry clones from the ORFeome V3.1 into suitable destination vectors.
B2 displayed an HIV_LTR transactiv. of 0.33 fold change.
The same measure, in the same setting: the value for B3 was 2.50 fold change; that for B4 was 3.41 fold change; that for B5 was 7.30 fold change.
On the same count and under the same terms, under B6 stands 2.68 fold change; under B7, 0.40 fold change; under B8, 2.38 fold change.
On the same count and under the same terms, under B9 stands 6.90 fold change.
